Measured values as given in publication PMC5524982.

Experiments:
[1] = target: Proteus mirabilis ScsC (PmScsC), wild type, lacking the predicted secretion signal (Proteus mirabilis); assay: cross-linking; 150 μM purified PmScsC in 50 mM HEPES pH 8.5 with 3 mM DTSSP, 30 s–30 min, 23 °C; non-reducing SDS-PAGE, Coomassie; 50 mM DTT as control cleaves the cross-links
[2] = target: Proteus mirabilis ScsC (PmScsC), wild type, lacking the predicted secretion signal (Proteus mirabilis); assay: crystal structure; extended structure: oxidized PmScsC with 2.5 mM copper(II) chloride, 32% Jeffamine M-600 pH 7, 0.1 M HEPES pH 8, 20 °C; one molecule in the asymmetric unit, trimer generated by crystal symmetry
[3] = target: Proteus mirabilis ScsC (PmScsC), wild type, lacking the predicted secretion signal (Proteus mirabilis); assay: SEC-MALS; Superdex 200 or Superdex 75 10/300 GL, 25 mM Tris, 150 mM NaCl, pH 7.5; 500 μl of 3 mg ml^-1 injected, 1.0 ml min^-1
[4] = target: Proteus mirabilis ScsC (PmScsC), wild type, lacking the predicted secretion signal (Proteus mirabilis); assay: crystal structure; transitional structure: oxidized PmScsC, 2.85 M sodium malonate pH 5.8 with 0.1 M copper(II) chloride, 20 °C; 6 molecules (two trimers) in the asymmetric unit
[5] = target: Proteus mirabilis ScsC (PmScsC), wild type, lacking the predicted secretion signal (Proteus mirabilis); assay: SAXS; reduced PmScsC in 25 mM HEPES pH 7.5, 150 mM NaCl, 1 mM DTT; Australian Synchrotron SAXS-WAXS beamline; also pH 6.0-8.0 and 150-1,500 mM NaCl
[6] = target: Selenomethionine-labelled PmScsC (Proteus mirabilis); assay: crystal structure; compact structure: selenomethionine-labelled PmScsC, 2.85 M sodium malonate pH 5.8 with 0.1 M cobalt(II) chloride, 20 °C; 24 copies (8 trimers) in the asymmetric unit

Measured: stoichiometry N

Proteus mirabilis ScsC (PmScsC), wild type, lacking the predicted secretion signal (enzyme)
not listed: [6]
3: all other assays above

Selenomethionine-labelled PmScsC (enzyme)
3: [6]
